The values below come from the DeepSol protein solubility set.

The nature of this data set: soluble on expression in E. coli; label from the status in PepcDB or PDB records.
Regarding “MNVGDVVKGEVLAIDDDKQVIVGIQGTGVEGVVPLKELSTQRVDDVNEAAKVGDVLDLVVISRIGSDKENGSYLLSHRRLEARKVWDDVEKEYEAGHTIKAPVTQVVKGGLVVDAGVRGFIPASMIDDHYVEDLNAYKGQELELKIIEIEPSENRLILSHRAVVEKQREALEHHHHHH”, the “soluble on expression in E. coli” value was “soluble”.
Turning to “MRRRRRRDGFYLAPDFRHREAEDMAGVFDIDLDQPEDAGSEDELEEGGQLNESMDHGGVGPYELGMEHCEKFEISETSVNRGPEKIRPECFELLRVLGKGGYGKVFQVRKVTGANTGKIFAMKVLKKAMIVRNAKDTAHTKAERNILEEVKHPFIVDLIYAFQTGGKPYLILEYLSG”, the “soluble on expression in E. coli” value was “soluble”.
Take “MGSDKIHHHHHHMGTCLLSGLSEPSGGISEHLRGQTDQLGFRQFPHGLSGITQPCRGHRAPLAGLHPRYLRFSQSTPAHFVILTTESMTPTPEIPEPHYIGHRQRLKKKFFKCGLQALHDYEAVELLLSYAIPRKDIKSLSKDLLERFGSLKGIMDAELEELTAVRGISAHAAGLVRMVKEMSALYLQEKAREKPQISCTGELLDFCKTALGGLKDENFCVLYLDTQNRIIAFETIQKGIVNQAVVYPRQVIERALSHKSSALILVHNHPSGFVKPSDADIRLTRTITDTAKLLDIMVHDHLIIGENRFFSFREEGIMPL”: the “soluble on expression in E. coli” value is reported as “not soluble”.
Then “MGSDKIHHHHHHMKIVYFVDGLNRGGVESVVCHLSSSFAKLRNKIYIICLHKDMNDLHLEIPEYISVFYLPFESNRNHHVNYIRYLPNLVDLLKKIKPDIVHAHNSSFSYFFLSIGILLSRTVPVNIRSIHFSGFFLEKRTIEDKIRFIFDWCACRLLKTIIISVGPTVSRVVKRLYTSNQHLTIVNGIDTKEKFCKRNLTKSCMGISEDKYVAVYVARICEGKNHDTLIKAWEIVTQYHPSALLLFIGDGPLKEQYQSVVHEKSLDDKITFTGSIPNIVEYLSIADVGVFPSESEGLPLVLMEMMAVELPVVASKIPSCCDLIEENVNGILYETYDYKDLANKILSVLCDNELKKKLGEQAKLLVCNHYSIENMINRHNILYQKLLLKQNFTDAYN”, with “not soluble”; and “PYPIDLVSVVIPVYNEEASLPELLRRTEAACLELGRAFEIVLVDDGSRDRSAELLQAAAERDGSAVVAVILNRNYGQHAAILAGFEQSRGDLVITLDADLQNPPEEIPRLVERAAQGYDVVGSIRAERQDSAWRRWPSRLVNLAVQRSTGVAMHDYGCMLRAYRRSIVEAMLACRERSTFIPILANGFARHTCEIRVAHAERAHGESKYSAMRLLNLMFDLVTCMTTTPLR”, with “not soluble”; and “MDHAPERFDATPPAGEPDRPALGVLELTSIARGITVADAALKRAPSLLLMSRPVSSGKHLLMMRGQVAEVEESMIAAREIAGAGSGALLDELELPYAHEQLWRFLDAPVVADAWEEDTESVIIVETATVCAAIDSADAALKTAPVVLRDMRLAIGIAGKAFFTLTGELADVEAAAEVVRERCGARLLELACIARPVDELRGRLFF”, with “not soluble”.
For “MWTDAGGQVHEAASGDVRIASLVPSITELLFDLGLADQLVARTGFCIHPEPAVRAVAKVGGTKDVKLDRLRALAPTHVVVNIDENRRETVDEIRTFVPHVIVTHPCAPEDNLALYRLLGGIFGRRPQAEALVGQLRGELDAIQAQTWPARRVLYAIWQDPWMTVSRATYISRMLALVNWATWPDDADTSDTPAACVDGDCSRPNAPGERYPTFRWSDALVRELDAVLLSTEPYRFTEDHADALERQIGKPVLLVDGEMLSWYGSRAVAGARYLRSLAQGFLEHHHHHH”, the “soluble on expression in E. coli” value is given as “soluble”.
Consider “MKYKHLILSLSLIMLGPLAHAEEIGSVDTVFKMIGPDHKIVVEAFDDPDVKNVTCYVSRAKTGGIKGGLGLAEDTSDAAISCQQVGPIELSDRIKNGKAQGEVVFKKRTSLVFKSLQVVRFYDAKRNALAYLAYSDKVVEGSPKNAISAVPVMPWRQ”, for which the “soluble on expression in E. coli” value is recorded as “soluble”.
With “MKRSEKKSMSSALKNGIMERTQPEKVVQMQGTADLSTSKLGTKKYWDELYALELENFRRNPQDTGDCWFSDSDAEQKMIDFLVDNIGAYRISENASVVDLGTGNGHMLFELHQTEFQGKLVGIDYSEESVKLASNIAEATGVDNFISFQQADIFSGDWKPGKYDIVLDKGTLDAISLSGMKINGKLDVVDVYAGVVERILKKDGIFLITSCNFTQDELVKIIETDNLKMWKTIKYPVFQFGGVQGATICSVAFVKQN”, the “soluble on expression in E. coli” value is “soluble”.
“MLDDIPITIQKSKKIKTLSLNITPSLEVILKMPNSCSQTRASAFLKEQEAWLKKTFLSMQEKHSLLRTNLEKYQNKILVFDEVKNANDYTLTELKKILKTYLEQKLPLIAQKMQTSYTHFSIRNNAKVLGSCSYHNRLSFALLLVCAQKEAIDYVIIHELAHTIHKNHSKNFWRCVQIFCPNYRALRERLKQNTIFYAQLLKTLQPLEHHHHHH”: the “soluble on expression in E. coli” value is “soluble”.
As to “MFPFSPADVPTLSYFDEYRGRRVQCHFCFQEVDGSTLLNHFKDDLRVFRYPSNSCYGIAATGDALRAHLRRLHFYSRPPAVRGFDIEQRRIRSQLKFDEHEHDPDWDMEDVQQENRSKEAPVEAVNSQDATSPAEKVSKIKEDISTSSSRVDPMYSDEDSEDETSDADSSDDENRESEEEEDEY”, the “soluble on expression in E. coli” value is given as “not soluble”.
Turning to “MGSDKIHHHHHHMSYDEAFKTLLISSNAKLNLELNHLVIKQDENIAKLFLKDINIIVLESLQISISSALFNAFAKYKIILLTCDETHSINGVFTPFLGHFQSAKIAKEQMNVSAQKKAILWQKIIKNKILNQAFILKKHNKIEQSNELINLAKKVSLNDSKNIEAVAAALYFKTLFGTSFSRDELCFENSALNYGYAIIRACIIRAVCISGLLPWLGIKHDNIYNSFALCDDLIEVFRASVDDCVLKLKGESEFLSKDDKRALIGNLQSKINFDGQNYPLNRAINHYVANFKNALLYEDELKIVKFDD”, the “soluble on expression in E. coli” value is “not soluble”.
For “MSLNRSSIAHFTASVFVLNESHDKILGIYHKIYQSWGWVGGHADGNADLLAVAVKEVQEETGLRSFKKLSEMPISIEALPVFGHHHRKYGYVSAHIHLNVTFLFEAKESDSLQKNTDETGGLAWIPLEKFSEKSSEKEMRVIYDKIITRIINKEGHHHHHH”, the “soluble on expression in E. coli” value is “not soluble”.
Then “MNKNKPFIVVIVGPTASGKTELSIELAKRINGEIISGDSMQVYKHMNIGTAKVTPEEMDGIPHHLIDILNPDDTFSAYEFKRLAEDLITDITNRGKVPIIAGGTGLYIQSLIYNYELEDETVTPAQLSIVKQKLSALEHLDNQQLHDYLAQFDAVSAENIHPNNRQRVLRAIEYYLKTKKLLSNRKKVQQFTENYDTLLLGIEMSRKTLYSRINKRVDIMLDHGLFREVQQLVEQGYESCQSMQAIGYKELIPVINGQMIYEDAVNDLKQHSRQYAKRQMTWFKNKMSVHWLDKENMSLQMMLDEITTQIKLEHHHHHH”, with “soluble”.
For “MGSDKIHHHHHHMSKENIFDALKSGKIDYVRVEFVDILGNTKGRSLRRAEFENVINDNKGVDYPESLALMDYKDRPIKSRYEDIIAIPDLNTFVAIPYLERTARVLSFLAQPDGLPYPYCSRSILNKAIEKLKEAGYTLQVSFEPTFYLLNSALNPADYSKAFSLEGLLEQQNFLKLLIKYLEEIDIKVETINKHYGPGQYEVKLSQKPVLEAADSLISSREVIRDTAKMNNVIATFMPKPFKDYPSSSMDITLSLQTVDGKDIMYDPNDSKGIGLSKIAYNFISGILEHLPSILSIAAPTVNSYKRFKEVVTPNMPGIGSERHYIVRLPSYYKDTHQVEFRLADPLANPYILLASMIYAGLDGIERNLMANVNEYYGTLPQTLKESLSRLENDTYMKYNLGQDLISIYINIKNIEIEEYESQITEWERDYYLKAGW”, the “soluble on expression in E. coli” value is listed as “not soluble”.
Regarding “PNVVKMNKPFISLCPEITRAHALTLMDWLEDEHVTRHLSDSRHVSRFIEQVIDRVQLPVLTHLFNQGGRFFMAYDRHDVPVGFVRLVKTGSDCEIVLVIGNRDNWGRKLGASAIREGMKLAFFEMRAARLIAKVHPDNERSLNAFLRCGFVLESETP”, the “soluble on expression in E. coli” value is given as “not soluble”.
The result for “MKVYLHFSPQFFANTYLIGNEITKEAVIIDPAKITEKMIHQIEKNEFNLKAVLLTHDLEHPYETGLNTILKIYSPKVYAGSCFSENVTINTLRGDGCIDVAGYSVRYFAIPAHSSYSYMFQIENMVFTGTSLSAGMIGQTSNMYAERTLRNILKTKLMCFEDNLIIMPFYGPPTSIGVERKYNASFFQDLEHHHHHH” reads “not soluble”.
